From the nanobody polyreactivity screen of Harvey et al. (2022)

assay: yeast display, Sf9 membrane polyspecificity reagent, FACS + sequencing; frameworks hold sequencing errors
Outline: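 In a synthetic yeast display library (Saccharomyces cerevisiae BJ5465), nanobody expression was induced with galactose for 36–48 hours. FACS gates were set low and high (top ~1%) using anti-HA fluorescence for expression and streptavidin fluorescence for binding of the Sf9 membrane reagent. Each polyreactivity label is drawn from the gate of origin.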

Sequence | polyreactivity (PSR sort gate)
QVQLVESRGGLVQAGGSLRLSCAASGSNFYAYAMGWYRQAPGKERELVAAISWSTSSTYADSVKGRFTISRDNAKNTVYLQMNSLKPEDTAVYYCAASPYKGTGAEFDYWGQGTQVTVSS | low polyreactivity
QVQLVESGGGLVQAGGSLRLSCAASGRTFGVYVMGWYRQAPGKERELVAVITISGGSTYYADSVKGRFTISRDNAKNTVYLQMNSLKPEDTAVYYCAARTYYGYDYWGQGTQVTVSS | high polyreactivity
QVQLVESGGGLVQAGGSLRLSCAASGFIFRYYAMGWYRQAPGKERELVAAITRGGSTYYADSVKGRFTISRDNAKNTVYLQMNSLKPEDTAVYYCAARLYTQYYYWGQGTQVTVSS | high polyreactivity
QVQLGESGGGLVQAGGSLRLSCAASGSTFTSYAMGGSRQAPGKERELVAAITHRGSTNYADSVKGRFTISRDNAKYTVDLQMNSLKPEDTAVYYCNARYATSVLYDYWRQGTQVTVSS | high polyreactivity
QVQLVESGGGLVQAGGSLRLSCAASGSIFPSYAMGWYRQAPGKERELVAAISKSGGRTKYADSVKGRFTISRDNAKNTVYLQMNSLKPEDTAVYYCAAYAYFHRREGYWGQGTQVTVSS | high polyreactivity
QVQLVESGGGLVQAGGSLRLSCAASGSTFSRYAMGWYRQAPGKERELVAAISSDGTTYYADSVKGRFTISRDNAKNTVYLQMNSLKPEDTAVYYCAKRGYYRSRRYDYWGQGTQVTVSS | high polyreactivity
QVQLVESGGGLLQAGGSLRLSCAASGSTFYPYAMRWYRQAPGKERELVAAISSGGSTSYADSVKGRFTISRDNAKNTVYLQMNCLKPEDTAVYYCNGSSPGAVPVYDYDYWGQGTQVTVSS | low polyreactivity
QVKLVESGGGLVQAGGRLRLSCDAYGIILVGYDMGWYRPAPGKERELVATISSGSSTYYEDSVKGRFTISRDNAKNTVYLQMNSLKPEDTAVYYCNADHAGPYWRFHDDDYWGQGTKVTVSS | low polyreactivity
QLQLVESGAGLVKAGGSLRISSAASGYTFGRNTMGCYRQAPGKERELVAAITRRGGSTNYADSVKGRFTISRDNAKNTVYLQMNSLKQEDTAVYYCARDYRSYTGSYDSSYDYWGQGTQVTVSS | high polyreactivity
QVHLVESGRGLVQAGGSLRLSCAASGRTLYRYAMGWYRQAPGKERELVAAINQSGGRTYYADSVKGRFTISRDNAKNTVYFQMNSLKPEDTAVYYCAASPVRVGKVIDGRDYWGQGTQVTVSS | high polyreactivity
QVQLVESGGGLVQAGGSLRLSCAASGRIFVHYVMGWYRQAPGKERELVAAISRSGGRTYYADSVKGRFTISRDNAKNTVYLQMNSLKPEDTAVYYCATDASTYKYDYWGQGTQVTVSS | high polyreactivity
QVQLVESGGGLVQAGGSLRLSCAASGFIFYKYAMGWYRQAPGKERELVAAITASGGSTYYADSVKGRFTISRDNEKITVYLQMNSLKPEDTEVYFCAASRLFGFDYWGQGTQVTVSS | high polyreactivity
QVQLVESGGGLVQAGGRLRLSCAASGFTFRGYAMGWYRQAPGKERELVAAITKRGGSTYYADSVKGRFTISRDNAKNTVYLQMNSLKPEDTAVYYCNKYAGQTTYDYWGQGTQVTVSS | high polyreactivity
QVQLVESGGGLVQAGGSLRLSCSASGRTFSVYAMGSYRQAPGKERELVAGITSGGSTNYADSVKGRFTISRDNAKNTVYLQMNSLKPEDTAVYYCDAENVYAGFGFVSIVDYWVQGTQVTVSS | low polyreactivity
QVQLVESGGGLVQAGGSLRLSCAASVYTIGLYAMGCYRQAPGKEMELVAAMSWSGGSTYYADSVKGPFTISRDNAKKTVYLQMNSLKPEDTAVYYCAAVPYFSLEMGYWGQGTQVTVSS | low polyreactivity
QVQLVESGGGLVQAGGSLRLSCAASGIIFQHNAMGWYRQAPGKERELVAAISSNGGRTFYPDSVKGRFTISRDNAKNTVYLQMNSLKPEDTAVYYCNRQYPSRYGYWGQGTQVTVSS | high polyreactivity
QVQLVESGGGLVQAGGSLRLSCAASGRIFPYNVMGWYRQAPGKERELVAAISWSGGRTYYADSVKGRFTISRDNAKKTVYLQMNSLKPEDTAVYYCNTRTLVAMGYWGQGTEVTVSS | high polyreactivity
QVQLVESGGGLVQAGGSLRLICAASGSTFNYNAMGSSRQAPGKERELVAAISQTTSRTYYADSVKGRFTISRDNAKNTVYLQMNSLKPEDTAVYYCATKRWTRDRQRPRTQYYLFYYWGQGTQVTVSS | high polyreactivity
QVQLVESGGGLVQAGGSLRLSCAASGRIFLGNAMGWYRQAPGKERDLVAAITNGGGSTYYADSVKGRFTISRDNAKNTVYLQMNSLKPEDTAVYYCARGYKKSVQRFEYWGQGTQVTVSS | high polyreactivity
QVQLVESGGGLVQAGGSLRLSCAASGSTFDSYAMGWYRQAPGKEGELVAAITGGGDTNYADSVKGRFTISRDNAKNTVYLQMNSLKPEDTAVYYCAAYQRRGNYQMDYWGQGTQVTVSS | low polyreactivity
QVQLVESGGGLVQAGGSLRLSCAASGFTGVNAMGWYRQAPGKERELVARISNSGGSTYYADSVKGRFTISRDNAKNTVYLQMNSLKPEDTAVYYCNADSYYWGQGTQVTVSS | high polyreactivity
QVQLVESGGGLVQAGGSLRLSCAASGRTYVRNAMGWYRQAPGKERELVAGITRSGGSTYYADSVKGRFTISRDNAKNTVYLQMNSLKPEDTAVYYCAKRYDVYVGTVRPYDYWGQGTQVTVSS | low polyreactivity

Sequence | polyreactivity (PSR sort gate)
QVQLVESGGGLVQAGGSLRLSCAASGFSFSYYAMGWYRQAPGKERELVAAINYSGTSTYYADSVKGRFTISRDNAKNTVYLQMKSLKPEDTAVYYCAADLPYYPYLYDYWGQGTQVTVSS | low polyreactivity
QVQLVESGGGLVQAGGSLRLSCAASGIIFDGYTMGWYRQAPGTERELVAAITTSGTSTYYADSVKGRFTISRDNAKNTVYLQMNSLKPEDTAVYYCNAVRRGLPVVGAYDYWGQGTQVTVSS | high polyreactivity
QVQLVESGGGLVQAGGSLRLSCAASGSTISYYAMGWYRQAPGKERELVAAISSRGVITYYADSVKGRFTISRDNAKNTVYLQMNSLKPEDTAVYYCNVDSAWYPYETEDYWGQGTQVTVSS | low polyreactivity
QVQLVESGGGLVQAGGSLRLSCAASGRTFPSYAMGWYRQAPGKERELVAAISSRGSRTYYADSVKGRFTISRDNAKNTVYLQMNSLKPEDTAVYYCAAKNLWTRKSRYDYWGQGTQVTVSS | high polyreactivity
QVQLVESGGGLVHAGGSLRLSCAASGSTFTPNAMGWYRQAPRKERDLVAAIRGLNGRTYYADSVKGRITISRDNAKNTVYLQMNSLKPEDTAVYYCAAGGYSNYFAWHDYWGQCTQVTVSS | low polyreactivity
QVQLVESGGGLVQAGGSLRLSCADSGITFSRYAMGWYRQAPGKERELVAAITRRGGNTYYADSVKGRFTISRDIAKNTVYLQMNSLKPVDTAVYYCASGYTYYGGDYWGQGTQVTVSS | high polyreactivity
QVQLVESGGGLVQAGGGLRLSCAASGTFKRNAMGWYRQAPGKERELVATITRTGSTTYADSVKGRFTISRDNAKNTVYLQMNSLKPEDTAVYYCNRVTKEYGLRQYYYWGQGTQVTVSS | low polyreactivity
QVQLVESGGGLVQAGGSLRLSCAASGRIFRRNVMGWYRQAPGKEREMLAAIRGTGSTTYADSVKGRFTISRDNEKNTVYLQMNSLKPEDTAVYYCAAVQQGNHGFRYYYWGQGTQVTVSS | high polyreactivity
QVQLVESGGGLVQAGGSLRLSCAASGSIFGSYAMGWYRQGAGKERELVAGITYDGGSTYYADSVKGRFTISRDNAKNTVYLQMNSLKPEDTAVYYCAAVDIRLEWDFWFQPTYEYWGQGTQVTVSS | low polyreactivity
QVQLVESGGGLVQAGGSLRLSCAASGFTYIYYAMGWYRQAPGKERELVAAITSGGRTYYADSVKGRFTISRDNAKNTVYLQMNSLKPEDTAVYYCAKRFTLPLSEYDYWGQGTQVIVSS | high polyreactivity
QVQIVESGGGLVQAGGSLRLSCAASGSTFTRYTMGWYRQAPGKERELVAAISGRGGSTYYADSVKGRFTISRDNAKNTVYLQMNSLKPEDTAVYYCNKVYWRRGSLEYWGQGTQVTVSS | high polyreactivity
QVQLVESGGGLVQAGGSLRLSCAAYGSIFSWNAMGWYIQAPRKERELVAGITWSGGGTSYADSVKGRFTISRDNAKNTVYLQMNSLKPEDTAVYYCAKEWIFEFNYWGQGTQVTVSS | low polyreactivity
QVQLVESGGGLVQEGGSLRLSCAASGSTFSSYAMGWYRQAPGKERELVAAISWSGGSTYYADSVKGRFTISRDNAKNTVYLQMISLKPEDTAVYYCAAYTYSFRANHDYWGQGTQVTVSS | high polyreactivity
QVQLVESGGGLVQAGGSLRLSCAASGSTFYRNAMGWYRQAPGKERELVAAITWSGGTTYYADSVKGRFTISRDNAKNTVYLQMNSLKPEDTAVYYCAARFILAPRRGYNAYKYYYWGQGTQVTVSS | high polyreactivity
QVQLVESGGGLVQAGGSLRLSCAASGSIFEPYVMGWYRQAPGKERELVAAIRQTGGSTYYADSVKGRFTISRDNAKNTVYLQMNSLKPEDTAVYYCNAEQNPSALYDYRGVEGEMGYWGQGTQVTVSS | low polyreactivity
QVQLVESGGGLVQAGGSLRLSCAASGITFSVYAMGWYRQAPGTERELVAAISGSAGSTYYADSVKGRFTISRDNAKNTVYLQLNSLKPEDTAVYYCAARLAPKYSPSSYNYWGEGTQVTVSS | high polyreactivity
QVQLVESGGGLVQSGGSLRLSCAASGSTFDPNTMGSYRQAPGKERELVATITSVDSTNYADSVKGRFTISRDNAMNTVYLQMNSLIPEDTAVYYCNAAYGGVFFYAYDYWGQGTQVTVSS | low polyreactivity
QVQLVESGGGLVQAGGSLRLSCAASGSIFLIYAMGWYRQAPGKERELVATINRGDNTYYADSVKGRFTISRDNAKNTVYLQMNSLKPEDTAVYYCAARAYDLGYAGYDYWGQGTQVTVSS | low polyreactivity
QVQLVESGGGLVQAGGSLRLSCAASGAIFRGYAMGWYRQAPGKERELVATITRRCGSTYYADSVKGRFTISRDNAKNTVYLQMNSLKPEDTAVYYCNARLTFLSSWLGKLQWGYDYWGQGTQVTVSS | low polyreactivity
QVQLVESGGGLVQAGGSLRLSCAASGNIFCINTMGWYRQAPGKERELVAAIDASDGSTYYADSVKGRFTISRDNAKNTVYLQMNSLKPEDTAVYYCATRSGYDSVYYFYTLWYYYWGQGTQVTVCS | low polyreactivity
QVQLVESGGGLVQAGGSLRLSCAASGSTFLYNAMRWYRQAPGKEREFVAAISGSGGTTYYADSVKGRFTISRDNAKNTFYLQMNSLKPEDTAVYYCAVSQSWYWYYASDYWGQGTQVTVSS | low polyreactivity
